For series [1], the system named is murine tumor cell lines (B16F10, CT26, Neuro-2a) expressing full-length MICA or MICB. Kind of series: Shed and surface MICA/MICB in murine tumor cell lines transduced with full-length MICA or MICB. The class given is cell-based, mouse. Particulars: B16F10-MICA cells, 24 hours. From the text: B16F10, CT26, Neuro-2a, EL4 and RMA-S cell lines were transduced with lentiviral vector pHAGE-CMV-fullEF1a. MICA (allele 009) cDNA or other inserts were placed between NotI and BamHI cloning sites, 3′ to the EF1α promoter and 5′ to the IRES. ZsGreen or luciferase cDNAs were cloned 3′ to the IRES as fluorescence or bioluminescence reporters, respectively. The vector with the ZsGreen reporter was used to compare expression of cDNAs encoding full length MICA, full-length MICB and secreted MICA (Neuro-2a, RMA-S and/or B16F10 cell lines). CT26, EL4 and B16F10 cell lines were transduced with the vector that supported expression of the luciferase reporter. […]
Tumor cells (5×10^4 or 1×10^5 per well, depending on the cell line) were cultured for 24 to 72 hours in 96-well plates (flat-bottom plates for adherent cell lines, U-bottom plates for suspension cell lines). […] MICA or control antibodies were added at different concentrations, and shed MICA/B was then detected in supernatants by ELISA using the Human MICA ELISA kit (Ab59569, Abcam) or Human MICB DuoSet ELISA kit (DY1599, R&D Systems), using the procedures recommended by the manufacturers. […]
MICA and MICB were detected on the cell surface by the PE-conjugated anti-MICA/B antibody (clone 6D4, 320906, Biolegend). […] All samples were acquired in a BD LSR Fortessa flow cytometer, and analyzed by FlowJo V10 software.

The subject of a further series is CT26-MICA. In words: CT26 metastasis model. To be noted: antibody days 1, 2, 7, 14; count day 21. In kind it is in vivo, Balb/c mice. As for the experimental part: Balb/c wild type mice were injected intravenously with 1×10^6 CT26-MICA, and treated with 7C6-mIgG2b or MPC-11 (isotype) administered intraperitoneally on days 1, 2, 7, and 14. Euthanasia was performed on day 21, followed by lung perfusion with 30% Indian ink through the trachea and fixation in Fekete's fixative. That procedure stains the lungs in black, while the metastases remain white, enabling counting of metastases under a stereomicroscope (24).
Balb/c wild type mice were injected intravenously with 1×10^6 CT26-MICA, and treated with 7C6-mIgG2b or MPC-11 (isotype) administered intraperitoneally on days 1, 2, 7, and 14. Euthanasia was performed on day 21, followed by lung perfusion with 30% Indian ink through the trachea and fixation in Fekete's fixative. That procedure stains the lungs in black, while the metastases remain white, enabling counting of metastases under a stereomicroscope.

The next series deals with B16F10-MICA cells. Kind of series: B16F10 metastasis model in immunocompetent mice. The class given is in vivo, C57BL/6 mice. To be noted: anti-asGM1, anti-NK1.1 or anti-CD8β. Here is the method: The B16F10 cells were transduced with the luciferase-based lentiviral vector to express MICA. B16F10-MICA cells (5×10^5) were injected intravenously into C57BL/6 mice through the tail vein. Fewer tumor cells (4×10^5) were injected into NK cell-deficient mice given that the absence of NK cells results in a very large number of metastases. 7C6 or isotype control antibodies (MPC-11 or C1184, BioXcell, which have mIgG2b and mIgG2a isotypes, respectively) were administered intraperitoneally on days 1, 2, 7 and 10 at a dose of 200 μg per mouse. Antibody blockade and depletion were performed as described previously (24). For antibody-based depletion of CD8 T cells or NK cells, 100 μg per mouse of anti-CD8 (5358, BioXcell), anti-NK1.1 (PK136, BioXcell), and anti-asialo(as)GM1 (Wako Chemicals) were given on days −1, 0, and 7. For antibody blockade, anti-NKG2D (HMG2D, BioXcell) or control IgG (MOPC-21) were given at 200 μg per mouse on days −1, 0, 5, 7 and 10. Blood samples were collected at multiple time points by retro-orbital bleeding under isoflurane anesthesia. Mice were euthanized by CO2 inhalation, lungs were perfused with PBS and fixed in formalin solution, and the number of superficial metastases was counted under a stereomicroscope. Histology was performed by the Rodent Histopathology Core of the Dana-Farber/Harvard Cancer Center using lungs that had not been perfused with PBS.
Macrophages were depleted by intravenous injection of 0.2 ml clodronate liposomes (Encapsula NanoSciences LLC). In the humanized and B16F10-MICA metastasis models, 0.2 ml of clodronate liposomes or control liposomes were injected i.v. (on the same day of tumor cell inoculation and then once weekly).

The test system of the next series is RMA-S cell lines. Kind of series: 51Cr release assay with murine NK cells against RMA-S cell lines. In kind it is cell-based, mouse. Here is the method:
Murine NK cells were isolated from the spleen of C57BL/6 Rag1^−/− mice. These cells were enriched by negative selection using a Mouse NK Cell Isolation Kit (130-096-892, Miltenyi Biotech). Cells were then incubated with PE-conjugated anti-NK1.1 and Pacific Blue-conjugated anti-CD3 (Biolegend), and NK cells were sorted using a BD FACS Aria. Purity after sorting was ˜99%. NK cells used for cytotoxicity assays were isolated from mice that had received an intraperitoneal injection of 200 μg Poly(I:C) (InvivoGen) 1 day prior to NK cell isolation.
Target cells were labeled for 1 hour with 100 μCi of ^51[Cr] per 2×10^6 cells in 0.2 ml of media. Subsequently, cells were washed and plated in V-bottom 96-wells plates (5,000 target cells per well). To determine the experimental release, NK cells were added in an equal volume, but at different ratios. […]
For experiments shown in FIGS. 1E, 10, and 13E antibodies were added at the time of the killing assay. […] At the end of the incubation period, plates were centrifuged (2000 rpm, 5 minutes), part of the supernatant was collected, mixed with scintillation fluid, and radioactivity was quantified using a MicroBeta2 reader (Perkin Elmer). Specific killing was calculated using the following formula: 100×(Experimental release−Spontaneous release)/(Maximum release−Spontaneous release).

B1: 7C6-mIgG2b: 7C6 with parental murine IgG2b Fc (antibody)
VH: QIQLVQSGPELKKPGETVKVSCKASGYMFTNYAMNWVKQAPEKGLKWMGWINTHTGDPTYADDFKGRIAFSLETSASTAYLQINNLKNEDTATYFCVRTYGNYAMDYWGQGTSVTVSSAKTTAPSVYPLAPVCGDTTGSSVTLGCLVKGYFPEPVTLTWNSGSLSSGVHTFPAVLQSDLYTLSSSVTVTSS
VL: DIQMTQTTSSLSASLGDRVTISCSASQDISNYLNWYQQKPDGTVKLLIYDTSILHLGVPSRFSGSGSGTDYSLTISNLEPEDIATYYCQQYSKFPRTFGGGTTLEIK
Regarding B1, in series [1], the “ability to inhibit MICA shedding, 7C6 with distinct Fc regions” value is recorded as “does not alter the ability of MICA antibody to inhibit MICA shedding”. Further, the “activity against CT26-MICA lung metastases” value in the series on CT26-MICA is “has activity against CT26-MICA tumor cells”. The “therapeutic activity against lung metastases after NK cell or CD8 T cell depletion” value in the series with B16F10-MICA cells was “NK cell (anti-asGM1 or anti-NK1.1) but not CD8 T cell (anti-CD8β) depletion abrogated the therapeutic activity”. The “murine NK cell-mediated cytotoxicity against tumor cells expressing full-length MICA” value in the series with RMA-S cell lines (full-length MICA) was “enhances NK cell-mediated cytotoxicity”. Moreover, the “murine NK cell-mediated cytotoxicity against tumor cells that release MICA by exocytosis” value in the series with RMA-S cell lines (secreted MICA) is “not against tumor cells that release MICA by exocytosis”.

The values are drawn from patent US12662540B2, “Compositions and methods for inhibition of MICA/B shedding” (DANA-FARBER CANCER INSTITUTE, INC., priority 2017, dated 2026).
